The text below walks through data of ChEMBL document CHEMBL3244047, “Peptidyl transferase substrate specificity with nonaromatic aminoacyl analogues of puromycin” (J Med Chem, 1978).

The source made the active and inactive calls. No cut-off for these calls is given here.

What is called Km is the concentration of substrate that gives half-maximal velocity. For orientation: Vmax means the top rate of the reaction or transport when substrate is in excess.

For data set [1], the target named is T1, Bacterial 70S ribosome (Bacteria) (UniProt P0A7V0+P60723+P0AG67+P0A7R5+P0A7R9+P0A7S3+P0A7S9+P0AG59+P0ADZ4+P0A7T3+P0AG63+P0A7T7+P0A7U3+P0A7U7+P68679+P0A7V3+P0A7V8+P0A7W1+P02358+P02359+P0A7W7+P0A7X3+P0A7J3+P0A7J7+P0AA10+P0ADY3+P02413+P0ADY7+P0AG44+P0C018+P0A7K6+P0A7L0+P0A7L3+P0AG48+P61175+P0ADZ0+P60624+P68919+P0A7L8+P0A7M2+P0A7M6+P60422+P0AG51+P0A7N1+P0A7M9+P0A7N4+P0A7N9+P0A7P5+P0A7Q1+Q2EEQ2+P0A7Q6+P60438+P62399+P0AG55+P0A7K2). As to the kind of experiment: Activity of Escherichia coli ribosomal peptidyl transferase using Ac[14C]phe-tRNA as donor substrate assessed as [14C]polyphenylalanine formation at 2 x 10^-4 M after 40 mins by double reciprocal plot analysis in presence of poly(U).

For data set [2], the target named is T1, Bacterial 70S ribosome (Bacteria). Put plainly: Activity of Escherichia coli ribosomal peptidyl transferase using Ac[14C]phe-tRNA as donor substrate assessed as [14C]polyphenylalanine formation after 40 mins by scintillation counting analysis in presence of poly(U) relative to puromycin.
Data set [3] has as its system CCCCCCCCSC[C@H](N)C(=O)N[C@H]1[C@@H](O)[C@H](n2cnc3c(N(C)C)ncnc32)O[C@@H]1CO. As to the kind of experiment: (§1) Activity of Escherichia coli ribosomal peptidyl transferase using Ac[14C]phe-tRNA as donor substrate assessed as [14C]polyphenylalanine formation after 40 mins by double reciprocal plot analysis in presence of poly(U). The note with it: Ribosome.
Data set [4] concerns CCCCCCSC[C@H](N)C(=O)N[C@H]1[C@@H](O)[C@H](n2cnc3c(N(C)C)ncnc32)O[C@@H]1CO. The description is as §1. As to conditions: Ribosome.
Data set [5] deals with CCCCSC[C@H](N)C(=O)N[C@H]1[C@@H](O)[C@H](n2cnc3c(N(C)C)ncnc32)O[C@@H]1CO. Described as §1. The note with it: Ribosome.
Data set [6] relates to CN(C)c1ncnc2c1ncn2[C@@H]1O[C@H](CO)[C@@H](NC(=O)[C@@H](N)CSCCCCCCO)[C@H]1O. Described as §1. As to conditions: Ribosome.
The subject of data set [7] is COc1ccc(C[C@H](N)C(=O)N[C@H]2[C@@H](O)[C@H](n3cnc4c(N(C)C)ncnc43)O[C@@H]2CO)cc1. The description is as §1. As to conditions: Ribosome.
For data set [8], the system named is CCCCCSC[C@H](N)C(=O)N[C@H]1[C@@H](O)[C@H](n2cnc3c(N(C)C)ncnc32)O[C@@H]1CO. The data set is described as §1. The note with it: Ribosome.
The subject of data set [9] is CN(C)c1ncnc2c1ncn2[C@@H]1O[C@H](CO)[C@@H](NC(=O)[C@@H](N)CSCc2ccccc2)[C@H]1O. The description is as §1. The note with it: Ribosome.
Data set [10] has as its system CCCSC[C@H](N)C(=O)N[C@H]1[C@@H](O)[C@H](n2cnc3c(N(C)C)ncnc32)O[C@@H]1CO. The data set is described as §1. As to conditions: Ribosome.

Take `CN(C)c1ncnc2c1ncn2[C@@H]1O[C@H](CO)[C@@H](NC(=O)[C@@H](N)CSC(c2ccccc2)c2ccccc2)[C@H]1O`: the outcome in data set [1] was inactive.
As for `CCCCCCCCSC[C@H](N)C(=O)N[C@H]1[C@@H](O)[C@H](n2cnc3c(N(C)C)ncnc32)O[C@@H]1CO`, the Efficacy in data set [2] stood at 45.6%.
Take `CN(C)c1ncnc2c1ncn2[C@@H]1O[C@H](CO)[C@@H](NC(=O)[C@@H](N)CSCc2ccccc2)[C@H]1O`: the Efficacy in data set [2] was found to be 17.4%.
Consider `CCCCCCSC[C@H](N)C(=O)N[C@H]1[C@@H](O)[C@H](n2cnc3c(N(C)C)ncnc32)O[C@@H]1CO`, for which, in data set [2], the Efficacy worked out at 67.5%.
Turning to `CN(C)c1ncnc2c1ncn2[C@@H]1O[C@H](CO)[C@@H](NC(=O)[C@@H](N)CSCCCCCCO)[C@H]1O`, the Efficacy in [2] was found to be 95.6%.
On to `CCCCCSC[C@H](N)C(=O)N[C@H]1[C@@H](O)[C@H](n2cnc3c(N(C)C)ncnc32)O[C@@H]1CO`, for which the Efficacy in data set [2] was 54.3%.
As to `CCC(CC)SC[C@H](N)C(=O)N[C@H]1[C@@H](O)[C@H](n2cnc3c(N(C)C)ncnc32)O[C@@H]1CO`, in [1], the result was inactive.
Take “Bacterial 70S ribosome (Bacteria) (from UniProt P0A7V0+P60723+P0AG67+P0A7R5+P0A7R9+P0A7S3+P0A7S9+P0AG59+P0ADZ4+P0A7T3+P0AG63+P0A7T7+P0A7U3+P0A7U7+P68679+P0A7V3+P0A7V8+P0A7W1+P02358+P02359+P0A7W7+P0A7X3+P0A7J3+P0A7J7+P0AA10+P0ADY3+P02413+P0ADY7+P0AG44+P0C018+P0A7K6+P0A7L0+P0A7L3+P0AG48+P61175+P0ADZ0+P60624+P68919+P0A7L8+P0A7M2+P0A7M6+P60422+P0AG51+P0A7N1+P0A7M9+P0A7N4+P0A7N9+P0A7P5+P0A7Q1+Q2EEQ2+P0A7Q6+P60438+P62399+P0AG55+P0A7K2)”: the Michaelis-Menten constant (Km) in data set [3] is 177 µM; in data set [4], 215 µM; in [5], 395 µM; in [6], 166 µM; in data set [7] it was 234 µM; in data set [8], 255 µM. In addition, the results for the Km in [9] and in data set [10] were 460 µM and 374 µM, respectively. Further, the Vmax was determined as 1.38 pmol/min in data set [3]; 2.46 pmol/min in data set [4]; 2.43 pmol/min in [5]; 2.71 pmol/min in data set [6]; 3.99 pmol/min in data set [7]; 2.36 pmol/min in data set [8]. In addition, the maximal velocity (Vmax) was determined as 1.36 pmol/min in data set [9] and 2.86 pmol/min in data set [10].
With `CCCSC[C@H](N)C(=O)N[C@H]1[C@@H](O)[C@H](n2cnc3c(N(C)C)ncnc32)O[C@@H]1CO`, the Efficacy in [2] came out at 44.8%.
The same measure, in the same setting: then `CCCCSC[C@H](N)C(=O)N[C@H]1[C@@H](O)[C@H](n2cnc3c(N(C)C)ncnc32)O[C@@H]1CO`, with 36.2%.
